Changes are numbered by the printed parent chain. Numbers in names are those of the source. Like-named read-outs stand apart in the source and are kept apart here.
B1: CstB^Rhod (isolated C-terminal rhodanese domain of CstB, residues 347-444) (domain or fragment, Staphylococcus aureus strain Newman, UniProt G5ELA4 347-444, looked up)
chain: SGISTQSVHSADMTGKEEHVLDVRNDEEWNNGHLDQAVNIPHGKLLNENIPFNKEDKIYVHCQSGVRSSIAVGILESKGFENVVNIREGYQDFPESLK
B2: Staphylococcus aureus strain Newman CstB, wild-type, full-length (enzyme, UniProt G5ELA4 1-444, looked up)
chain: MFFKQFYDNHLSQASYLVGCQRTGEAIIIDPVRDLSKYIEVADSEGLTITQATETHIHADFASGIRDVAKRLNANIYVSGEGEDALGYKNMPSKTQFVKHGDIIQVGNVKLEVLHTPGHTPESISFLLTDLGGGSSVPMGLFSGDFIFVGDIGRPDLLEKSVQIKGSTEISAKQMYESVQNIKNLPDYVQIWPGHGAGSPCGKALGAIPISTIGYEKINNWAFNEIDETKFIESLTSNQPAPPHHFAQMKQVNQFGMNLYQSYDVYPSLDNKRVAFDLRSKEAFHGGHTKGTINIPYNKNFINQIGWYLDFEKDIDLIGDKSTVEKAKHTLQLIGFDKVAGYRLPKSGISTQSVHSADMTGKEEHVLDVRNDEEWNNGHLDQAVNIPHGKLLNENIPFNKEDKIYVHCQSGVRSSIAVGILESKGFENVVNIREGYQDFPESLK
B3: C201S CstB, full-length (enzyme)
chain: B2 chain with C201S

Tests used:
SEC [1] = molecular target: the molecule itself; experiment: SEC
SEC [2] = molecular target: the molecule itself; experiment: SEC; remark: listed apart in the source

Row | Protein | stoichiometry N (SEC [1]) | stoichiometry N (SEC [2])
1 | B1 | ~3 | 
2 | B2 |  | 4
3 | B3 | 4 | 

From paper PMC4874178 (Biochemistry, 2015)
